What all share (experiment): SPR
The target of assay [1] is red fox aminopeptidase N ectodomain fused with the Fc domain of human IgG (red fox (Vulpes vulpes)).
Assay [2] has as its target giant panda aminopeptidase N ectodomain fused with the Fc domain of human IgG (giant panda (Ailuropoda melanoleuca)).
Assay [3] deals with horse aminopeptidase N ectodomain fused with the Fc domain of human IgG (horse (Equus caballus)).
The target in assay [4] is Arabian camel aminopeptidase N ectodomain fused with the Fc domain of human IgG (Arabian camel (Camelus dromedarius)).
The target of assay [5] is T1, dAPN-Q746K ectodomain, hFc-tagged (dog (Canis lupus familiaris), UniProt P79143 33-975, Q746K).
T1 sequence: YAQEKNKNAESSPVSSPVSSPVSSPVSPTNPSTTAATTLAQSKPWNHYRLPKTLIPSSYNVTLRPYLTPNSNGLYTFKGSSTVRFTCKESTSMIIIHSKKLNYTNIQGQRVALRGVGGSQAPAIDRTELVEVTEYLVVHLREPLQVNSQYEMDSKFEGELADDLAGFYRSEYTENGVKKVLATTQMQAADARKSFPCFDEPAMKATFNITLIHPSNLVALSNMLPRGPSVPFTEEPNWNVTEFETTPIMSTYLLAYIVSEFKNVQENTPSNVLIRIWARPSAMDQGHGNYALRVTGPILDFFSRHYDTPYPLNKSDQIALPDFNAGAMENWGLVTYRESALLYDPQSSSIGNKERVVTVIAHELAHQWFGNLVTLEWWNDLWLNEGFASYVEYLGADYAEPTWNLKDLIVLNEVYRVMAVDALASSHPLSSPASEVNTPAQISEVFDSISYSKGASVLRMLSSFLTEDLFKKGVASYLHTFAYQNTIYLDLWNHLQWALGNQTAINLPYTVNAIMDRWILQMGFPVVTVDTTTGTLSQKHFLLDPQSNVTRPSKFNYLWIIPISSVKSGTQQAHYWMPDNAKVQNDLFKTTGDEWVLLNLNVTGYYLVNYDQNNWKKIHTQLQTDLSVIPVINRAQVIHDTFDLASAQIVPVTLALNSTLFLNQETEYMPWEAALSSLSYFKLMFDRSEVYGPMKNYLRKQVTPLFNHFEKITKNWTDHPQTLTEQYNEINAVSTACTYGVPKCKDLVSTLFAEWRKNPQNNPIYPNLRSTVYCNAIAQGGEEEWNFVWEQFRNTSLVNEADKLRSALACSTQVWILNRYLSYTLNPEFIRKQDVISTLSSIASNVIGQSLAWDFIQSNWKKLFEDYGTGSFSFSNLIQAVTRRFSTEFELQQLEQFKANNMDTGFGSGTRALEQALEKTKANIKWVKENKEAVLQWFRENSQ

In assay [6] the target is T2, dAPN-Y797H ectodomain, hFc-tagged (dog (Canis lupus familiaris), UniProt P79143 33-975, Y797H).
T2 sequence: T1 sequence with K714Q, Y765H

The record followed here is paper PMC11741606 (2025).

Numbering of substitutions follows the chain as printed.

B1: TGEV RBD (receptor-binding domain of the transmissible gastroenteritis coronavirus spike protein) (domain or fragment)
chain: TANLNNGFYPVSSSEVGLVNKSVVLLPSFYTHTIVNITIDLGMKRSGYGQPIASTLSNITLPMQDNNTDVYCIRSDQFSVYVHSTCKSSLWDNIFKRNCTDVLDATAVIKTGTCPFSFDKLNNYLTFNKFCLSLSPVGANCKFDVAARTRTNEQVVRSLYVIYEEGDNIVGVPSD
Turning to B1, the Kd in assay [1] was 462 nM; in assay [2], 765 nM; in assay [3] it was 2350 nM; in assay [4], 6360 nM; in assay [5], 333 nM; in assay [6], 23.8 nM.
